Experimental data: publication PMC8018910

Key:
Human IL-18 (human) [1] = target: Human IL-18 (human) (UniProt Q14116)
Human IL-18 (human) [2] = target: Human IL-18 (human) (UniProt Q14116); details: cited from earlier work

Human IL-18 (human), sequence (Q14116 37-193): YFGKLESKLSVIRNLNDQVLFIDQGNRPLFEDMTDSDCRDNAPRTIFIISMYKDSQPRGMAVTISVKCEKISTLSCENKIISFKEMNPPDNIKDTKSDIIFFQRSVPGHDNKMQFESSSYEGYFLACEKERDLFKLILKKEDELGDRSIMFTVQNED
Clinical-grade recombinant human IL-18BP, sequence (O95998 31-194): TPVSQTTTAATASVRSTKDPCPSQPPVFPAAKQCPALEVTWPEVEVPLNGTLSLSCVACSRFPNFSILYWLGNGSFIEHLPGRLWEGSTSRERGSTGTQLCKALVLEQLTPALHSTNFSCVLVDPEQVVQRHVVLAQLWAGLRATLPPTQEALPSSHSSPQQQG
IL-18BP, sequence (O95998 31-194): as above

Substance	reduction of IL-12/IL-18-induced IFNγ production in human PBMC cultures by IL-18BP (24 h) (Human IL-18 (human) [1])	reduction of IL-12/IL-18-induced IL-6 release in human PBMC cultures by IL-18BP (24 h) (Human IL-18 (human) [1])	Kd (Human IL-18 (human) [2])
Clinical-grade recombinant human IL-18BP (from UniProt O95998 31-194) (natural protein)	95%	85%	–
IL-18BP (from UniProt O95998)	–	–	0.5 nM
